What was measured:
[1] = target: T1, His6-CeHsc70 (Caenorhabditis elegans Hsc70, HSP-1) (C. elegans, UniProt P09446 1-640); assay: AUC; competition: 15 µM BAG-1 added to 300 nM *DNJ-13, 3 µM CeHsc70 and 4 mM ATP; sedimentation velocity with fluorescence detection; dc/dt analysis; settings: both partners purified
T1 construct: CeHsc70 (HSP-1), the sole Hsc70-like protein of C. elegans; full-length protein (the lid is said to end at amino acid 640); pET28a-based plasmid; also called nematodal Hsc70; source: E. coli BL21-CodonPlus (DE3)-RIL, purified (HisTrap, ResourceQ, Superdex 75)
T1 sequence (P09446 whole entry): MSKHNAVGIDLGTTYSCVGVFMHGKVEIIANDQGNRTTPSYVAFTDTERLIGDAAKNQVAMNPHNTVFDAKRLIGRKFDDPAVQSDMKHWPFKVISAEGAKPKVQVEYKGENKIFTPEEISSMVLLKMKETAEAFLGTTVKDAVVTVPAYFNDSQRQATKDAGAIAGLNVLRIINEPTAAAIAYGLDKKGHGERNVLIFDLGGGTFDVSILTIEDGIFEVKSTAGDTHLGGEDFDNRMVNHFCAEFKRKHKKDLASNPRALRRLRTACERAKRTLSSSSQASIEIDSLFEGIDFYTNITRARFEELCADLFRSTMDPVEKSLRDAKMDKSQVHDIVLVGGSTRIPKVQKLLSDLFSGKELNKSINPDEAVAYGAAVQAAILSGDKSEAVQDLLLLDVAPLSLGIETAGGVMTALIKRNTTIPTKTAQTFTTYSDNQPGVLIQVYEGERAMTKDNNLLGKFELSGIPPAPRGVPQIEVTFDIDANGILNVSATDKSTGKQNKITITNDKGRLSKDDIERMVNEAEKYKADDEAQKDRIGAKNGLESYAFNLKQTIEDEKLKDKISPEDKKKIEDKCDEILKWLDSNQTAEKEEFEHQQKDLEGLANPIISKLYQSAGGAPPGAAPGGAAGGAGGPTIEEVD

[2] = target: the molecule itself; assay: AUC; sedimentation velocity with fluorescence detection, 300 nM *DNJ-13 alone, 20°C, 42 000 rpm; whole boundary fitting and C(s) (UltraScan)
[3] = target: T1, His6-CeHsc70 (Caenorhabditis elegans …); assay: cell-based or functional assay

B1: BAG-1 (C. elegans, unlabelled) (natural protein, UniProt O44739 1-210, looked up)
chain: MKVNVSCSSVQTTIDILEENQGEDESILTLGQLRDRIATDNDVDVETMKLLHRGKFLQGADDVSLSTLNFKENDKIIVMGGKNALVDDAGFKMLMQYEKHNLSNLQKAYDLNLRDVADLERGFLEKPKQVEMGKKLEKKVKYFNEEAERHLETLDGMNIITETTPENQAKRNREKRKTLVNGIQTLLNQNDALLRRLQEYQSVLNGDIPE
notes: BAG-1, nucleotide exchange factor of C. elegans, full-length, cloned from a C. elegans cDNA preparation; a His tag is surmised from the HisTrap column; also called nematodal BAG-1; source: E. coli BL21-CodonPlus (DE3)-RIL, purified (HisTrap, ResourceQ, Superdex 75)
binding result [1]: binds

B2: *DNJ-13 (C. elegans DNJ-13 labelled with carboxyfluorescein) (natural protein)
chain: not shown
modifications: 5-(and-6)-carboxyfluorescein succinimidylester, preferential labeling at the N-terminal amine group (labelling efficiency 1.2)
notes: DNJ-13, Hsp40-like J-domain protein of C. elegans (Sis1 / DNAJB homolog); also called fluorescently labeled DNJ-13; source: E. coli BL21-CodonPlus (DE3)-RIL, purified (HisTrap, ResourceS, Superdex 75), then labelled
stoichiometry N [2]: 2

B3: DNJ-13 (C. elegans, unlabelled) (natural protein)
chain: not shown
apparent KD of DNJ-13 from titration of the steady-state ATPase activity of 1 µM CeHsc70 in the presence of 2 µM BAG-1, standard buffer, 25°C [3]: 6.8 µM
